# Source: the Immune Epitope Database (IEDB)
# Key:
# [1] = biological target: HLA-A*24:02; assay: IEDB peptide-MHC binding, cellular MHC/competitive/fluorescence; ≥ and ≤ were set here for values at or beyond the usual limits of such assays; conditions: source organism: Vaccinia virus WR
# [2] = biological target: HLA-A*23:01; assay: as above; conditions: source organism: Vaccinia virus WR
# [3] = biological target: HLA-A*01:01; assay: as above; conditions: source organism: Vaccinia virus WR
# [4] = biological target: HLA-A*29:02; assay: as above; conditions: source organism: Vaccinia virus WR
# [5] = biological target: HLA-A*26:01; assay: as above; conditions: source organism: Vaccinia virus WR
# [6] = biological target: HLA-A*30:02; assay: as above; conditions: source organism: Vaccinia virus WR
# [7] = biological target: HLA-A*02:01; assay: IEDB peptide-MHC binding, purified MHC/competitive/radioactivity; ≥ and ≤ were set here for values at or beyond the usual limits of such assays
# [8] = biological target: HLA-A*31:01; assay: IEDB peptide-MHC binding, cellular MHC/competitive/fluorescence; ≥ and ≤ were set here for values at or beyond the usual limits of such assays; conditions: source organism: Hepatitis B virus
# [9] = biological target: HLA-A*11:01; assay: as above; conditions: source organism: Hepatitis B virus
# [10] = biological target: HLA-A*68:01; assay: as above; conditions: source organism: Hepatitis B virus
# [11] = biological target: HLA-A*02:06; assay: as above
# [12] = biological target: HLA-A*68:02; assay: as above
# [13] = biological target: HLA-A*02:03; assay: IEDB peptide-MHC binding, purified MHC/competitive/radioactivity; ≥ and ≤ were set here for values at or beyond the usual limits of such assays
# [14] = biological target: HLA-A*03:01; assay: as above; conditions: source organism: Hepatitis B virus
# [15] = biological target: HLA-A*02:02; assay: as above
# [16] = biological target: HLA-A*31:01; assay: as above; conditions: source organism: Hepatitis B virus
# [17] = biological target: HLA-A*02:06; assay: as above
# [18] = biological target: HLA-A*68:02; assay: as above
# [19] = biological target: HLA-A*02:02; assay: IEDB peptide-MHC binding, cellular MHC/competitive/fluorescence; ≥ and ≤ were set here for values at or beyond the usual limits of such assays
# [20] = biological target: HLA-A*03:01; assay: as above; conditions: source organism: Hepatitis B virus
# [21] = biological target: HLA-A*02:01; assay: as above
# [22] = biological target: HLA-A*02:03; assay: as above
# [23] = biological target: HLA-A*23:01; assay: IEDB peptide-MHC binding, purified MHC/competitive/radioactivity; ≥ and ≤ were set here for values at or beyond the usual limits of such assays; conditions: source organism: Vaccinia virus WR
# [24] = source organism: Vaccinia virus WR
# [25] = source organism: Hepatitis B virus
Sequence,IC50 [1] [µM],IC50 [3] [µM],IC50 [4] [µM],IC50 [5] [µM],IC50 [6] [µM],IC50 [9] [µM],IC50 [10] [µM],"IC50 [12, 25] [µM]","IC50 [13, 25] [nM]",IC50 [14] [nM],"IC50 [15, 25] [nM]",IC50 [16] [nM],"IC50 [17, 25] [nM]","IC50 [18, 25] [nM]",other results
VQTIVFIWFI,≥ 70,5.13,20.3,16,13.3,–,–,–,–,–,–,–,–,–,"IC50 [2]: 32.8 µM; IC50 [7, 24]: 952 nM"
HLYSHPIIL,–,–,–,–,–,≥ 70,≥ 70,22.7,18,171,81,–,–,–,"IC50 [8]: 46 µM; IC50 [11, 25]: 9.45 µM"
LLDYQGMLPV,–,–,–,–,–,28.5,≥ 70,–,–,63,–,4010,2.6,626,–
FLFILLLCL,–,–,–,–,–,19,26.9,–,1570,664,–,1470,1780,1200,"IC50 [19, 25]: 7.02 µM; IC50 [7, 25]: 213 nM"
YQNEVTPEYI,≥ 70,≥ 70,19.4,≥ 70,8.74,–,–,–,–,–,–,–,–,–,"IC50 [2]: 26.9 µM; IC50 [12, 24]: 8.57 µM; IC50 [13, 24]: 0.21 nM; IC50 [15, 24]: 2.7 nM; IC50 [7, 24]: 8.1 nM; IC50 [17, 24]: 2.6 nM"
RVRGLYFPA,–,–,–,–,–,≥ 70,≥ 70,17.2,3960,–,3120,24,–,–,"IC50 [20]: ≥ 70 µM; IC50 [21, 25]: 18 µM; IC50 [11, 25]: 8.24 µM"
SQAKKPEVRI,32.1,≥ 70,≥ 70,≥ 70,≥ 70,–,–,–,–,–,–,–,–,–,"IC50 [2]: 51.7 µM; IC50 [19, 24]: 10.7 µM; IC50 [21, 24]: 46.3 µM; IC50 [11, 24]: 5.86 µM; IC50 [13, 24]: 2370 nM; IC50 [18, 24]: 1670 nM"
LQDIVNEHDI,≥ 70,≥ 70,≥ 70,≥ 70,≥ 70,–,–,–,–,–,–,–,–,–,"IC50 [22, 24]: 38.2 µM; IC50 [2]: ≥ 70 µM; IC50 [19, 24]: 7.63 µM; IC50 [21, 24]: 23.3 µM; IC50 [11, 24]: 10.8 µM; IC50 [12, 24]: ≥ 70 µM"
WMMWYWGPSL,–,–,–,–,–,≥ 70,≥ 70,–,68,–,354,784,305,3590,IC50 [20]: 15.4 µM
ILCWGELMTL,–,–,–,–,–,≥ 70,43.9,7.82,5.3,–,6.7,1860,7,–,IC50 [20]: 9.08 µM
ILLLCLIFL,–,–,–,–,–,13.8,30.3,12.1,1530,624,1120,1480,145,–,–
FLAPLPIHTA,–,–,–,–,–,43.2,35.5,–,0.28,4090,0.049,–,13,971,"IC50 [8]: ≥ 70 µM; IC50 [7, 25]: 1.3 nM"
LLWFHISCL,–,–,–,–,–,32.5,≥ 70,≥ 70,–,3260,307,–,382,–,IC50 [8]: 8.85 µM
CLRRFIIFL,–,–,–,–,–,≥ 70,≥ 70,48.8,–,2630,–,–,–,–,"IC50 [22, 25]: 14.6 µM; IC50 [19, 25]: 7.11 µM; IC50 [8]: 6.65 µM; IC50 [11, 25]: 10.1 µM; IC50 [7, 25]: 1390 nM"
LLVPFVQWFV,–,–,–,–,–,8.09,45.2,–,–,476,0.17,161,–,68,"IC50 [22, 25]: 10.5 µM"
VQSVLRDISI,25.4,15.6,≥ 70,6.66,19.7,–,–,–,–,–,–,–,–,–,"IC50 [13, 24]: 541 nM; IC50 [23]: 3.5 µM; IC50 [15, 24]: 78 nM; IC50 [7, 24]: 497 nM; IC50 [17, 24]: 132 nM; IC50 [18, 24]: 1290 nM"
